{"source": "paper PMC4997581", "assay_in_all_cases": "co-IP", "key": {"[1]": {"molecular_target": "Cyclin H (human (endogenous in 293T and HFF)) (UniProt P51946)", "sequence (P51946 whole entry)": "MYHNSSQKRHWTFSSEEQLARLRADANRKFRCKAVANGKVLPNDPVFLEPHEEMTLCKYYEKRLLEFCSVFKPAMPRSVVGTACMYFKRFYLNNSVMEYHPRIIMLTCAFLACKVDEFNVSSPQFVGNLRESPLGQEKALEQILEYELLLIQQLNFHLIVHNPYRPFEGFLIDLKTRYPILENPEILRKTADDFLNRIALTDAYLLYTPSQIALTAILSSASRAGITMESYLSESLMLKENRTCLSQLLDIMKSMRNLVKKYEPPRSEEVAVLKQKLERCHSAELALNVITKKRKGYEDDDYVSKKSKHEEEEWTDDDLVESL"}, "[2]": {"molecular_target": "Cyclin T1 (human (endogenous in 293T and HFF)) (UniProt O60563)", "sequence (O60563 whole entry)": "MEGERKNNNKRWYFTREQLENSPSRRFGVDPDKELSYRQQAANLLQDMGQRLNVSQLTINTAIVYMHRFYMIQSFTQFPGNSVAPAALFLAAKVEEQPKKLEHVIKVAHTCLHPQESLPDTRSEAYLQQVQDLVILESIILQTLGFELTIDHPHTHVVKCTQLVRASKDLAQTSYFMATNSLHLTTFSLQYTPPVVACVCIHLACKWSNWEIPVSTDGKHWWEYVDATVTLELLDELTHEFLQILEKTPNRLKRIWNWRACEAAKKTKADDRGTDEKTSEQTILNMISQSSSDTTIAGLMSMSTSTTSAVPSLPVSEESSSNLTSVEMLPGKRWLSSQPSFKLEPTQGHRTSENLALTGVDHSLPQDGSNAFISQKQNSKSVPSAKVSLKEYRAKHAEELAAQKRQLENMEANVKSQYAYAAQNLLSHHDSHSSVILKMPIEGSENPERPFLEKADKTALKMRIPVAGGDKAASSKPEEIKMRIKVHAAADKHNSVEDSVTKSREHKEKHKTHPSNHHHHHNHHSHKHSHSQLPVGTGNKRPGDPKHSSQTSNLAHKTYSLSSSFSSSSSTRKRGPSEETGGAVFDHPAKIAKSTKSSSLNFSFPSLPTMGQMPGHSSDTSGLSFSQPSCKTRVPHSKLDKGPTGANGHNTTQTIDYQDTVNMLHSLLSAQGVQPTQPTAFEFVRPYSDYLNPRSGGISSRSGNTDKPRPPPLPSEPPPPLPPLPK"}, "[3]": {"molecular_target": "Cyclin B1 (human (endogenous in 293T and HFF)) (UniProt P14635)", "sequence (P14635 whole entry)": "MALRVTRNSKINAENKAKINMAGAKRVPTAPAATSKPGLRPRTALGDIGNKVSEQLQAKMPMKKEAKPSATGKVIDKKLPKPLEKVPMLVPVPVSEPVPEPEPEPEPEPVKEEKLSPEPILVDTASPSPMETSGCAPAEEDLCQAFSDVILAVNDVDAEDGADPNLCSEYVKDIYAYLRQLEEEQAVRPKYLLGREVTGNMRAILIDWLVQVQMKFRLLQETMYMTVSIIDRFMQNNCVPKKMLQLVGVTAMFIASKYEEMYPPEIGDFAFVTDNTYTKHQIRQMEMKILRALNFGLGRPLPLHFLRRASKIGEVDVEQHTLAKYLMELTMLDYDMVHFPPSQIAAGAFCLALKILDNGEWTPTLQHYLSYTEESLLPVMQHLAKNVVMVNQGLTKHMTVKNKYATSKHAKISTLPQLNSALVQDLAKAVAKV"}}}
{"substance": "HCMV protein kinase pUL97, Flag-tagged (pUL97-Flag) (from UniProt P16788 1-707) (natural protein)", "values": [{"measurement": "pUL97 co-IP Western blot signal relative to cyclin B1", "setting": "[1]", "result": 4, "unit": "%"}, {"measurement": "pUL97 co-IP Western blot signal relative to cyclin B1", "setting": "[2]", "result": 9, "unit": "%"}]}
{"substance": "Protein kinase pUL97 of HCMV AD169, in infected cells (natural protein)", "values": [{"measurement": "pUL97 co-IP Western blot signal relative to cyclin B1", "setting": "[3]", "result": 100, "unit": "%"}, {"measurement": "pUL97 co-IP Western blot signal relative to cyclin B1", "setting": "[1]", "result": 160, "unit": "%"}, {"measurement": "pUL97 co-IP Western blot signal relative to cyclin B1", "setting": "[2]", "result": 77, "unit": "%"}]}
{"substance": "pUL97 stably expressed in transduced HFFs (from UniProt P16788 1-707) (natural protein)", "values": [{"measurement": "pUL97 co-IP Western blot signal relative to cyclin B1", "setting": "[2]", "result": 42, "unit": "%"}]}
